B1: PU.1 motif oligo 32 (dsDNA)
DNA 1: ACGTAACTTCCTCCTAACGT
DNA 2: ACGTTAGGAGGAAGTTACGT
B2: PU.1 motif oligo 29 (dsDNA)
DNA 1: ACGTGACTTCCTGTTTACGT
DNA 2: ACGTAAACAGGAAGTCACGT
B3: PU.1 motif oligo 11 (dsDNA)
DNA 1: ACGTCACTTCCTCAAAACGT
DNA 2: ACGTTTTGAGGAAGTGACGT
B4: PU.1 motif oligo 23 (dsDNA)
DNA 1: ACGTCACTTCCCCAAAACGT
DNA 2: ACGTTTTGGGGAAGTGACGT
B5: PU.1 motif oligo 1 (dsDNA)
DNA 1: ACGTCACTTCCTCTTTACGT
DNA 2: ACGTAAAGAGGAAGTGACGT
B6: PU.1 motif oligo 19 (dsDNA)
DNA 1: ACGTCAGTTCCTCTTCACGT
DNA 2: ACGTGAAGAGGAACTGACGT
B7: PU.1 motif oligo 27 (dsDNA)
DNA 1: ACGTCTCTTCCTCTTTACGT
DNA 2: ACGTAAAGAGGAAGAGACGT
B8: PU.1 motif oligo 4 (dsDNA)
DNA 1: ACGTCACTTCCTCTATACGT
DNA 2: ACGTATAGAGGAAGTGACGT
B9: PU.1 motif oligo 35 (dsDNA)
DNA 1: ACGTTGCTTCCTCTTTACGT
DNA 2: ACGTAAAGAGGAAGCAACGT
B10: PU.1 motif oligo 43 (dsDNA)
DNA 1: ACGTCACTTCCTCTGGACGT
DNA 2: ACGTCCAGAGGAAGTGACGT
B11: PU.1 motif oligo 12 (dsDNA)
DNA 1: ACGTCACTTCCTTTCTACGT
DNA 2: ACGTAGAAAGGAAGTGACGT
B12: PU.1 motif oligo 18 (dsDNA)
DNA 1: ACGTCACTTCCTCAACACGT
DNA 2: ACGTGTTGAGGAAGTGACGT
B13: PU.1 motif oligo 16 (dsDNA)
DNA 1: ACGTAACTTCCTCATAACGT
DNA 2: ACGTTATGAGGAAGTTACGT
B14: PU.1 motif oligo 40 (dsDNA)
DNA 1: ACGTCAGTTCCTTAAAACGT
DNA 2: ACGTTTTAAGGAACTGACGT
B15: PU.1 motif oligo 25 (dsDNA)
DNA 1: ACGTCACTTCCGCTTCACGT
DNA 2: ACGTGAAGCGGAAGTGACGT
B16: PU.1 motif oligo 22 (dsDNA)
DNA 1: ACGTGACTTCCTCATCACGT
DNA 2: ACGTGATGAGGAAGTCACGT
B17: PU.1 motif oligo 47 (dsDNA)
DNA 1: ACGTCGCTTCCTCCTCACGT
DNA 2: ACGTGAGGAGGAAGCGACGT
B18: PU.1 motif oligo 38 (dsDNA)
DNA 1: ACGTCGCTTCCCCTTCACGT
DNA 2: ACGTGAAGGGGAAGCGACGT
B19: PU.1 motif oligo 15 (dsDNA)
DNA 1: ACGTGACTTCCTCTCTACGT
DNA 2: ACGTAGAGAGGAAGTCACGT
B20: PU.1 motif oligo 37 (dsDNA)
DNA 1: ACGTCACTTCCTGCTAACGT
DNA 2: ACGTTAGCAGGAAGTGACGT
B21: PU.1 motif oligo 14 (dsDNA)
DNA 1: ACGTCACTTCCTCTGTACGT
DNA 2: ACGTACAGAGGAAGTGACGT
B22: PU.1 motif oligo 17 (dsDNA)
DNA 1: ACGTCACTTCCTCCCTACGT
DNA 2: ACGTAGGGAGGAAGTGACGT
B23: PU.1 motif oligo 13 (dsDNA)
DNA 1: ACGTCACTTCCTCTACACGT
DNA 2: ACGTGTAGAGGAAGTGACGT
B24: PU.1 motif oligo 26 (dsDNA)
DNA 1: ACGTAAGTTCCTCATTACGT
DNA 2: ACGTAATGAGGAACTTACGT
B25: PU.1 motif oligo 42 (dsDNA)
DNA 1: ACGTCACTTCCGCCTCACGT
DNA 2: ACGTGAGGCGGAAGTGACGT
B26: PU.1 motif oligo 21 (dsDNA)
DNA 1: ACGTGAGTTCCTCTTTACGT
DNA 2: ACGTAAAGAGGAACTCACGT
B27: PU.1 motif oligo 5 (dsDNA)
DNA 1: ACGTCACTTCCTCTCTACGT
DNA 2: ACGTAGAGAGGAAGTGACGT
B28: PU.1 motif oligo 24 (dsDNA)
DNA 1: ACGTAACTTCCTCAATACGT
DNA 2: ACGTATTGAGGAAGTTACGT
B29: PU.1 motif oligo 28 (dsDNA)
DNA 1: ACGTTACTTCCTTTTAACGT
DNA 2: ACGTTAAAAGGAAGTAACGT
B30: PU.1 motif oligo 46 (dsDNA)
DNA 1: ACGTCACTTCCTCCAGACGT
DNA 2: ACGTCTGGAGGAAGTGACGT
B31: PU.1 motif oligo 30 (dsDNA)
DNA 1: ACGTCAGTTCCTGTTTACGT
DNA 2: ACGTAAACAGGAACTGACGT
B32: PU.1 motif oligo 2 (dsDNA)
DNA 1: ACGTCACTTCCTCATTACGT
DNA 2: ACGTAATGAGGAAGTGACGT
B33: PU.1 motif oligo 41 (dsDNA)
DNA 1: ACGTCACTTCCTAAATACGT
DNA 2: ACGTATTTAGGAAGTGACGT
B34: PU.1 motif oligo 33 (dsDNA)
DNA 1: ACGTAACTTCCCCAATACGT
DNA 2: ACGTATTGGGGAAGTTACGT
B35: PU.1 motif oligo 39 (dsDNA)
DNA 1: ACGTCGCTTCCTCTCCACGT
DNA 2: ACGTGGAGAGGAAGCGACGT
B36: PU.1 motif oligo 31 (dsDNA)
DNA 1: ACGTCAGTTCCTCAAAACGT
DNA 2: ACGTTTTGAGGAACTGACGT
B37: PU.1 motif oligo 44 (dsDNA)
DNA 1: ACGTCACTTCTCTTTTACGT
DNA 2: ACGTAAAAGAGAAGTGACGT
B38: PU.1 motif oligo 20 (dsDNA)
DNA 1: ACGTAACTTCCCCATTACGT
DNA 2: ACGTAATGGGGAAGTTACGT
B39: PU.1 motif oligo 34 (dsDNA)
DNA 1: ACGTCACTTCCTCCCCACGT
DNA 2: ACGTGGGGAGGAAGTGACGT
B40: PU.1 motif oligo 45 (dsDNA)
DNA 1: ACGTCATTTCCTCCTTACGT
DNA 2: ACGTAAGGAGGAAATGACGT
B41: PU.1 motif oligo 36 (dsDNA)
DNA 1: ACGTCCCTTCCTCTTTACGT
DNA 2: ACGTAAAGAGGAAGGGACGT
B42: PU.1 motif oligo 3 (dsDNA)
DNA 1: ACGTCACTTCCCCTTTACGT
DNA 2: ACGTAAAGGGGAAGTGACGT

What follows are binders tested against PU.1 (human, UniProt P17947 1-270) (assay: MST; MST: 20 mM Tris-HCl pH 7.6, 1.5 mM MgCl2, 0.5 mM EGTA, 10% glycerol, 300 mM KCl, 10 mM DTT, 25 C; 50 nM Cy3-dsDNA, PU.1 1:1 dilutions from 23 uM). Details: protein: recombinant; tags: N-terminal His-tag; label: Cy3 on upper strand.
With B1 the Kd was 464 ± 77 nM.
For B2, the Kd was 361 ± 54 nM.
B3 was tested, and the Kd was 242 ± 5 nM.
In the case of B4, the Kd is reported as 362 ± 103 nM.
B5 showed a Kd of 164 ± 17 nM.
Binder B6 has a Kd of 596 ± 7 nM.
In the case of B7, the Kd is reported as 719 ± 116 nM.
B8 was tested, and the Kd was 413 ± 84 nM.
B9 was tested, and the Kd was 414 ± 92 nM.
In the case of B10, the Kd is reported as 822 ± 289 nM.
B11 showed a Kd of 588 ± 95 nM.
In the case of B12, the Kd is reported as 452 ± 107 nM.
In the case of B13, the Kd is reported as 444 ± 55 nM.
In the case of B14, the Kd is reported as 808 ± 97 nM.
In the case of B15, the Kd is reported as 613 ± 70 nM.
Work on B16 yielded a Kd of 532 ± 11 nM.
B17 gave a Kd of 757 ± 186 nM.
With B18 the Kd was 893 ± 116 nM.
With B19 the Kd was 324 ± 45 nM.
B20 was tested, and the Kd was 794 ± 112 nM.
B21 showed a Kd of 658 ± 267 nM.
Binder B22 has a Kd of 470 ± 26 nM.
Binder B23 has a Kd of 568 ± 283 nM.
Work on B24 yielded a Kd of 490 ± 141 nM.
B25 was tested, and the Kd was 656 ± 191 nM.
B26 was tested, and the Kd was 298 ± 15 nM.
Binder B27 has a Kd of 270 ± 23 nM.
B28 showed a Kd of 462 ± 77 nM.
For B29, the Kd was 422 ± 29 nM.
In the case of B30, the Kd is reported as 634 ± 12 nM.
Work on B31 yielded a Kd of 558 ± 77 nM.
Binder B32 has a Kd of 272 ± 36 nM.
Binder B33 has a Kd of 620 ± 147 nM.
B34 showed a Kd of 611 ± 58 nM.
B35 gave a Kd of 983 ± 94 nM.
B36 gave a Kd of 599 ± 142 nM.
With B37 the Kd was 770 ± 174 nM.
B38 gave a Kd of 234 ± 21 nM.
Work on B39 yielded a Kd of 690 ± 134 nM.
With B40 the Kd was 828 ± 8 nM.
B41 gave a Kd of 682 ± 71 nM.
For B42, the Kd was 454 ± 61 nM.
